These results are taken from article PMC6315854, “Cloning, Expression and Characterization of a Novel Cold-adapted β-galactosidase from the Deep-sea Bacterium Alteromonas sp. ML52” (Marine Drugs, 2018).

The data set has as its system O=[N+]([O-])c1ccccc1O[C@@H]1O[C@H](CO)[C@H](O)[C@H](O)[C@H]1O. The data set is described as follows: purified protein. The note with it: 35 °C, 50 mM sodium phosphate pH 8, ONPG 0.1–5 mM.

Usually Km stands for the concentration of substrate that gives half-maximal velocity. Broadly, the Vmax is the top rate of the reaction or transport when substrate is in excess. One may read the kcat as the number of substrate molecules converted per active site and unit of time at saturation. By kcat/Km is commonly meant the second-order rate constant that governs catalysis at low substrate concentration.

Turning to “recombinant Gal (β-galactosidase) (Alteromonas sp.)”, the Km turned out to be 140 µM, the maximal velocity (Vmax) amounted to 465 µmol/min/mg, the catalytic constant (kcat) was 3690 s⁻¹ and the catalytic efficiency (kcat/Km) was determined as 2.63e+07 M⁻¹ s⁻¹.
